Measured values reported in patent US20230242634A1.

Biological target: human TNF-α (human) (UniProt P01375)
Experiment: cell-based or functional assay

Chain of UniProt P01375 (P01375 77-233 limits assumed): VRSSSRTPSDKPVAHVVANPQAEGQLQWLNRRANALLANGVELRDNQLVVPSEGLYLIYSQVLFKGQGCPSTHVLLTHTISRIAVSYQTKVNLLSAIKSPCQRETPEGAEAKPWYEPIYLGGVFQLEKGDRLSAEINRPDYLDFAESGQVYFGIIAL

Q: How did the IC50 (M), TNF-α-mediated killing of L929 cells (CCK-8) turn out when “TA001 (the original Adalimumab) (antibody)” was run?
A: 1.48e-08 M
